Laboratory results: the supplement of paper PMC9170038

Test system: MS2 coat protein
Assay: apparent KD of MS2 coat protein; designed switch direction (-1 OFF switch, 1 ON switch): -1; higher = weaker reporter binding
Outline: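 Designed RNA switches sharing common flanks were transcribed on Illumina chips by stalled E. coli RNA polymerase. They were titrated with SNAP-549-labelled MS2 coat protein, from 0.7 or 1.5 nM doubling to 3 µM, in Tris-HCl pH 7.5 buffer with KCl, MgCl2, BSA, DTT, tRNA and Tween-20. Titrations ran without input, with 200 uM small-molecule ligand, or with an oligonucleotide input. The apparent KD of each design is the median over its clusters, after curve-fitting of normalised cluster fluorescence.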

[1] = Eterna round: R95, input ligand: FMN 200 uM
[2] = Eterna round: R95, input ligand: microRNA oligo, concentration not stated
[3] = Eterna round: R95, input ligand: none
[4] = input ligand: microRNA oligo, concentration not stated

Sequence	apparent KD of MS2 coat protein (input ligand: FMN 200 uM)	apparent KD of MS2 coat protein (input ligand: none)	apparent KD of MS2 coat protein [1]	apparent KD of MS2 coat protein [2]	apparent KD of MS2 coat protein [3]	apparent KD of MS2 coat protein [4]
UUUAAACAUGAGGAUCACCCAUGUAAGGAUAUACGAAUGCAGACACACACGGAUGCAAGUAGAAGGUACAAUGC [Design #9] (Eterna round: R97, puzzle: Exclusion 1)	37.6 nM	42.6 nM	–	–	–	–
UUUAAACAUGAGGAUCACCCAUGUUAGGAUAUACGCAUGCAGACACGCACGGAUGCAAGUAGAAGGAACCAUGC [Design #6] (Eterna round: R97, puzzle: Exclusion 1)	27.9 nM	31.3 nM	–	–	–	–
UUUAAGUCAGGAUAUACAUGAGGAUCACCCAUGUAAAAUUUUAAUUUAAUUUUAAGGUGUAGAAGGGACAAUUU [Ex3 #3] (Eterna round: R97, puzzle: Exclusion 3)	29.5 nM	34.9 nM	–	–	–	–
UUUAAUUUUUUUUUUUUACAAGCUUUUUGCUCGUCUUAUACAUGAGGAUCACCCAUGUAAAUGGAAGGUAAAUUAUC [JMF 67] (puzzle: Sensor v3, turn-off variant 2)	–	–	15.5 nM	17.3 nM	13.5 nM	–
UUUAAUUUUUUUUUUUUACAAGCUUUUUGCUCGUCUUAUACAUGAGGAUCACCCAUGUAAGUGGGAAAUGAAUUAUC [JMF 99] (puzzle: Sensor v3, turn-off variant 2)	–	–	53.3 nM	419 nM	77.9 nM	–
UUUAAUUUUUUUUUUUUACAAGCUUUUUGCUCGUCUUAUACAUGAGGAUCACCCAUGUAGGUGAGAGAUAAAUUAUC [JMF 15] (puzzle: Sensor v3, turn-off variant 2)	–	–	19.6 nM	128 nM	24.4 nM	–
UUUAAUUUUUUUUUUUUACAAGCUUUUUGCUCGUCUUAUACAUGAGGAUCACCCAUGUGAGUGGAGGAUAAAUUAUC [JMF 34] (puzzle: Sensor v3, turn-off variant 2)	–	–	19.4 nM	29.2 nM	20.4 nM	–
UUUAAUUUUUUUUUUUUACAAGCUUUUUGCUCGUCUUAUACAUGAGGAUCACCCAUGUGGAUGGAGGAUAAAUUAUC [JMF 31] (puzzle: Sensor v3, turn-off variant 2)	–	–	20.1 nM	18.7 nM	16.2 nM	–
UUUAAUUUUUUUUUUUUACAAGCUUUUUGCUCGUCUUAUACAUGAGGAUCACCCAUGUGGGUAGAGGAUAAAUUAUC [JMF 28] (puzzle: Sensor v3, turn-off variant 2)	–	–	38.7 nM	61.1 nM	36.2 nM	–
UUUAAUUUUUUUUUUUUACAAGCUUUUUGCUCGUCUUAUACAUGAGGAUCACCCAUGUGGGUAGAGGGUAAAUUAUC [JMF 82] (puzzle: Sensor v3, turn-off variant 2)	–	–	15.1 nM	38.9 nM	14.9 nM	–
UUUAAUUUUUUUUUUUUACAAGCUUUUUGCUCGUCUUAUACAUGAGGAUCACCCAUGUGGGUGAAAGGUAAAUUAUC [JMF 64] (puzzle: Sensor v3, turn-off variant 2)	–	–	46.8 nM	21 nM	54.2 nM	–
UUUAAUUUUUUUUUUUUACAAGCUUUUUGCUCGUCUUAUACAUGAGGAUCACCCAUGUGGGUGGAAGGUAAAUUAUC [JMF 70] (puzzle: Sensor v3, turn-off variant 2)	–	–	79.4 nM	26.7 nM	176 nM	–
UUUACAAGCUAUAGAUCCCACAUGAGGAUCACCCAUGUUGCUGCCGGUGACGGUAGCAUAACUAUUGCUCGUCUUAU [JL TOV1 3.61] (Eterna round: R97, puzzle: Sensor, turn-off variant 1)	150 nM	185 nM	–	–	–	–
UUUACAAGCUUUAGAUCCCACAUGAGGAUCACCCAUGUUCCUGGCCGUGAGGCUAGGUAAACUAAUGCUCGUCUUAU [JL TOV1 3.65] (Eterna round: R97, puzzle: Sensor, turn-off variant 1)	197 nM	244 nM	–	–	–	–
UUUAGUUGGUAAGGAUAUCCUACAUUGUUCUGGCCCGGGCAUGCUACAUGAGGAUCACCCAUGUGGGAGAAGGUGCGUCAUCGC [Design 19] (Eterna round: R96, puzzle: Exclusion NG 2)	51.4 nM	47.9 nM	–	–	–	39.4 nM
UUUAGUUGGUAAGGAUAUCCUACAUUGUUCUGGCCCGGGCAUGCUACAUGAGGAUCACCCAUGUGGGAGAAGGUGCGUCAUUGC [Design 20] (Eterna round: R96, puzzle: Exclusion NG 2)	42.5 nM	51.8 nM	–	–	–	42.5 nM
UUUAUAAUAAGAUCAAUUAAUUAACAUGAGGAUCACCCAUGUGAGGAUAUCAGCUCGUUUAGAGCUGAGAAGGCACAAUAUAAG [ExNG3/17-B2] (Eterna round: R96, puzzle: Exclusion NG 3)	62.2 nM	42.3 nM	–	–	–	42.1 nM
UUUAUGCUAGGAUAUGCACCCUCGAACAUGAGGAUCACCCAUGUACAAUAAAAGCAUGGAGCAGAAGGAGCUCCCA [EX5 A.24] (Eterna round: R97, puzzle: Exclusion 5)	378 nM	80.1 nM	–	–	–	–

Sequence	apparent KD of MS2 coat protein (input ligand: FMN 200 uM)	apparent KD of MS2 coat protein (input ligand: none)	apparent KD of MS2 coat protein [1]	apparent KD of MS2 coat protein [2]	apparent KD of MS2 coat protein [3]	apparent KD of MS2 coat protein [4]
UUUAUGCUAGGAUAUGCACCCUCGAACAUGAGGAUCACCCAUGUACAAUAAACGCAUGGAGCAGAAGGAGCUCCGA [EX5 A.5] (Eterna round: R97, puzzle: Exclusion 5)	203 nM	86.7 nM	–	–	–	–
UUUAUGUGAGGAUAUAGUACUCCUUCUAUUAUUAUUGAGUACUAGAAGGCACAUGAGGAUCACCCAUGUAGUAC [Ex4 - 3 - 37] (puzzle: Exclusion 4)	–	–	–	24.3 nM	–	–
UUUCCUGCGCGGGUUUUUUACAUGAGGAUCACCCAUGUCCUCUGCUUGUCUUGUCUUGGGCUUGUUUCGGGUUCGGG [-18.4, -40.2 kcal, A 8%] (Eterna round: R97, puzzle: Sensor, turn-off variant 1)	635 nM	1190 nM	–	–	–	–
UUUGAUAGCACAGGAUAUUGUGAUUUGAGUUGACAAGAAGGGUGUACAUGAGGAUCACCCAUGUAAUGGUUGCCUCGUUGACUU [JR_ExcNG1_Sub006] (Eterna round: R96, puzzle: Exclusion NG 1)	48.8 nM	46.8 nM	–	–	–	36 nM
UUUGCAAGCUUAAGAUCCCACAUGAGGAUCACCCAUGUUGCUGCCGUGAGGUAGCUUUUAACUUAUGCUCGUCUUAU [JL TOV1 3.46] (Eterna round: R97, puzzle: Sensor, turn-off variant 1)	95.7 nM	115 nM	–	–	–	–
UUUGCAAGCUUAUGAUCCCACAUGAGGAUCACCCAUGUUCCUGGCCGUGAGGCUAGGAUAACAUAUGCUCGUCUUAU [JL TOV1 3.64] (Eterna round: R97, puzzle: Sensor, turn-off variant 1)	703 nM	814 nM	–	–	–	–
UUUGUGUAAGGAUAUGCGAGCCACGGAAAUAAAACGUGGAGGUAGAAGGUACAUGAGGAUCACCCAUGUAAAAC [Mod of Anonveat 21 - Jieux - Exclusion 4] (Eterna round: R97, puzzle: Exclusion 4)	54.8 nM	30 nM	–	–	–	–
UUUGUUUAGGUAGGAUAUACUUUUAAUUUCUCUUUCCUUACAUGAGGAUCACCCAUGUUUACAUUGUAGAAGGACCACUUUGUU [JR_ExcNG2_Sub052] (Eterna round: R96, puzzle: Exclusion NG 2)	–	–	–	–	–	16.5 nM
UUUGUUUAUGUAGGAUAUGCCUGGCGUGCCUUUGCAGAAGGACAUGAGGAUCACCCAUGUAUUGCGGUCUGCGUUCAGAUCGCU [salish99_ExNG1_r4_037] (Eterna round: R96, puzzle: Exclusion NG 1)	37.1 nM	34.8 nM	–	–	–	26.8 nM
UUUGUUUGCACAGGAUAUUGUUAUUUUAUUUUUCAAGAAGGGUGUACAUGAGGAUCACCCAUGUUAAGGUUUAAUCUUUCACUU [JR_ExcNG1_Sub010] (Eterna round: R96, puzzle: Exclusion NG 1)	346 nM	619 nM	–	–	–	479 nM
UUUGUUUGCACAGGAUAUUGUUAUUUUUUUUUUCAAGAAGGGUGUACAUGAGGAUCACCCAUGUUAUGGUUUUAUCUUUUACUU [JR_ExcNG1_Sub011] (Eterna round: R96, puzzle: Exclusion NG 1)	764 nM	1270 nM	–	–	–	765 nM
UUUUAACAAGCGAGGUCCCACAUGAGGAUCACCCAUGUAGGUCAUGGAUUCCAUGGUCUUUUUGCUCGUCUUGUGUG [jl TITIN mod 9] (Eterna round: R97, puzzle: Sensor, turn-off variant 1)	32.2 nM	31.6 nM	–	–	–	–
UUUUAACAUGAGGAUCACCCAUGUGAGGAUAUCAUUUUUUUUUUUUUUUUUUUUUUUUUGAGAAGGCACAUUUU [My solution] (puzzle: Exclusion 1)	–	–	11.9 nM	37 nM	14.2 nM	–
UUUUAACAUGAGGAUCACCCAUGUGAGGAUAUCGAAAUUUAUAUUAAUAUUAAUUAAACGAGAAGGCACAUUUU [JMF 27] (puzzle: Exclusion 1)	–	–	–	72.5 nM	–	–
UUUUAACAUGAGGAUCACCCAUGUGAGGAUAUCGAAAUUUAUAUUAAUAUUAUUUAAUCGAGAAGGCACAUUUU [JMF 44] (puzzle: Exclusion 1)	–	–	–	100 nM	–	–
UUUUAACAUGAGGAUCACCCAUGUGAGGAUAUCGAAAUUUAUAUUAAUAUUAUUUUAUCGAGAAGGCACAUUUU [JMF 48] (puzzle: Exclusion 1)	–	–	–	122 nM	–	–
UUUUAACAUGAGGAUCACCCAUGUGAGGAUAUCGAAAUUUAUAUUUAUAUUAAUAUUACGAGAAGGCACAUUUU [JMF 82] (puzzle: Exclusion 1)	–	–	–	89.6 nM	–	–
